Assay results from US20250304666A1 (ALCHEMAB THERAPEUTICS, published 2025).

How the values were obtained:
[1] = molecular target: T1, reduced CFHR1 (UniProt Q03591 19-330, limits assumed); test: ELISA, reduced antigen
T1 sequence (looked up): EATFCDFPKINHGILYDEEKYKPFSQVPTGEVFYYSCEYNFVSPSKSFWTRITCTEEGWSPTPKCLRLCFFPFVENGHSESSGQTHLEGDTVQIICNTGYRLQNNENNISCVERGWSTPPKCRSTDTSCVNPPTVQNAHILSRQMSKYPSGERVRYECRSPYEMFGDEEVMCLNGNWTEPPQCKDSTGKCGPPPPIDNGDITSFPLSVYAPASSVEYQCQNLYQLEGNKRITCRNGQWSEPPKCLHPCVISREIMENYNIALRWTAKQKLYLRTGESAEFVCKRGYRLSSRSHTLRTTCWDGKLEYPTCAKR

[2] = molecular target: T2, reduced CFHR2 (UniProt P36980 19-270, limits assumed); test: ELISA, reduced antigen
T2 sequence (looked up): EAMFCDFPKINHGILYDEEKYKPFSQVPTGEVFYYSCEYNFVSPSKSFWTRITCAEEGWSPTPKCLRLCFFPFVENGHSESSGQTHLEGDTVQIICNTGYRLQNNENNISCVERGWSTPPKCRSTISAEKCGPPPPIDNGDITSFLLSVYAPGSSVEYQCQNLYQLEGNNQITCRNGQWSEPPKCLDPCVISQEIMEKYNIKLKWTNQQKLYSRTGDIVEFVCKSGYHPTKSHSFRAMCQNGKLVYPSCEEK

[3] = molecular target: T3, reduced CFHR3 (UniProt Q02985 19-330, limits assumed); test: ELISA, reduced antigen
T3 sequence (looked up): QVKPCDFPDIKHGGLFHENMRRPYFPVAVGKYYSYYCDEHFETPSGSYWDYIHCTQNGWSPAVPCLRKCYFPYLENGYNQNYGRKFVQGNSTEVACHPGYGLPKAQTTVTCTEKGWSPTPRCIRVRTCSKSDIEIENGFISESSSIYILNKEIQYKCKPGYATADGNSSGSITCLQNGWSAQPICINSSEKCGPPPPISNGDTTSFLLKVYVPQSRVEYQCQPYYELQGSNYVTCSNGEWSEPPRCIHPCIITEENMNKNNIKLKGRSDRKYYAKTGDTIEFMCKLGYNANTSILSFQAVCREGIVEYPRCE

[4] = molecular target: T4, reduced CFHR5 (UniProt Q9BXR6 19-569, limits assumed); test: ELISA, reduced antigen
T4 sequence (looked up): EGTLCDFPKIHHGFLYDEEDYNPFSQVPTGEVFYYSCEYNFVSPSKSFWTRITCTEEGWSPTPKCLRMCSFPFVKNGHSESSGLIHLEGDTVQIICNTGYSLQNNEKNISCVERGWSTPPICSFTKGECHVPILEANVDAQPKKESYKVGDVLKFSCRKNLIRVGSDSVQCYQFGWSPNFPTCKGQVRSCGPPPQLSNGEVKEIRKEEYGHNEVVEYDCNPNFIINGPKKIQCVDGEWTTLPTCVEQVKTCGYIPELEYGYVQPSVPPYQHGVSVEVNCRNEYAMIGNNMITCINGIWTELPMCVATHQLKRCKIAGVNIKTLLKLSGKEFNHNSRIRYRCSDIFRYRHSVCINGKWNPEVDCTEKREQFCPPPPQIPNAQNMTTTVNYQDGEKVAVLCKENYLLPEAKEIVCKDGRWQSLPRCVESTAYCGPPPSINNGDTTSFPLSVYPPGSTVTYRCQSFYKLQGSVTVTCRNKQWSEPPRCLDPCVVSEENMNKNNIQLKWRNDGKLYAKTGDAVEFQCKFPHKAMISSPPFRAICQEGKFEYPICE

[5] = molecular target: T5, reduced CFH (Homo sapiens (Human), UniProt P08603 860-1231, limits assumed); test: ELISA, reduced antigen
T5 construct: also called CFH (reduced)
T5 sequence: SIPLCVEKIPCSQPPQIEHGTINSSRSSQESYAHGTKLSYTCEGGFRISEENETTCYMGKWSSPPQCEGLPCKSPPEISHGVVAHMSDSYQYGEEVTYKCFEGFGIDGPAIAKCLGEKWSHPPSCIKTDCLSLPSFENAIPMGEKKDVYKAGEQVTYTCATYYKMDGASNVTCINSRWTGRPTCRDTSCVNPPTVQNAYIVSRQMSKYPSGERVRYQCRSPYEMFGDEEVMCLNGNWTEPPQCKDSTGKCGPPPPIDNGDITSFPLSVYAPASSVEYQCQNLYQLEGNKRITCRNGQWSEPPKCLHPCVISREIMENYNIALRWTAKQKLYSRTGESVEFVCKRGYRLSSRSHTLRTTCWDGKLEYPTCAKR

[6] = molecular target: T6, non-reduced CFH; test: ELISA, non-reduced antigen
T6 construct: also called CFH (NON-REDUCED)
T6 chain: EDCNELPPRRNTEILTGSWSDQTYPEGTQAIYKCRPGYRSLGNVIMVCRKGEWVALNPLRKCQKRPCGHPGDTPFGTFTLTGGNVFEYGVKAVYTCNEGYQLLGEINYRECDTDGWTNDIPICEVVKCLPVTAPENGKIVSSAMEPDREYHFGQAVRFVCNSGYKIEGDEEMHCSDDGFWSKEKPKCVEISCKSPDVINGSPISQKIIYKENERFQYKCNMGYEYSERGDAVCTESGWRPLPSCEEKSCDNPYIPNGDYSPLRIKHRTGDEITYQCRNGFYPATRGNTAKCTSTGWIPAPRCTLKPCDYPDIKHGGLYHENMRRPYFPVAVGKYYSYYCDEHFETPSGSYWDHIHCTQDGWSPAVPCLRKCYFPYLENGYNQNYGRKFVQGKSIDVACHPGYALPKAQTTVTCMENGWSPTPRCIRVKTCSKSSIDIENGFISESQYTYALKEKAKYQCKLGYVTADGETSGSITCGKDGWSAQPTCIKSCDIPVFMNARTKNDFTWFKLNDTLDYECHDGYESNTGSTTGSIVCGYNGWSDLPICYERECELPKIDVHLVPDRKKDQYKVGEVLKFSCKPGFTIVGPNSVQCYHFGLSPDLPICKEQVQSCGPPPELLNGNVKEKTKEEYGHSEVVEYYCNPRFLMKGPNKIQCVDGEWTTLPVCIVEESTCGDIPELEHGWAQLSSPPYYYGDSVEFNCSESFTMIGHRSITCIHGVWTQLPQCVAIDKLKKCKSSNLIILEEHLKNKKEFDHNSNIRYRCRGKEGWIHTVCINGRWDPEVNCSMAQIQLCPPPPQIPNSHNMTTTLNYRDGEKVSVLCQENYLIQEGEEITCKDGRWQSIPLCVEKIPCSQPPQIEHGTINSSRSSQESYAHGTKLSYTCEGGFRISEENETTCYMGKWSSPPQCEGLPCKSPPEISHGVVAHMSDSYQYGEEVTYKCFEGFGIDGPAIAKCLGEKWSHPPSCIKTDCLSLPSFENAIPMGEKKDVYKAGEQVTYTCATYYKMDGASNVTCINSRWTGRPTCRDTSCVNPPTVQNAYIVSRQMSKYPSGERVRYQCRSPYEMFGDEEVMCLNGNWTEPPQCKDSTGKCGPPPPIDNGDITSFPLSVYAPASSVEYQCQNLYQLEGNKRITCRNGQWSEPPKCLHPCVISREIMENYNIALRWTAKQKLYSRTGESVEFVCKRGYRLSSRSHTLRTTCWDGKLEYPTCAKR

[7] = molecular target: T7, non-reduced CFHR1; test: ELISA, non-reduced antigen
T7 construct: also called CFHR1 (NON-REDUCED)
T7 chain: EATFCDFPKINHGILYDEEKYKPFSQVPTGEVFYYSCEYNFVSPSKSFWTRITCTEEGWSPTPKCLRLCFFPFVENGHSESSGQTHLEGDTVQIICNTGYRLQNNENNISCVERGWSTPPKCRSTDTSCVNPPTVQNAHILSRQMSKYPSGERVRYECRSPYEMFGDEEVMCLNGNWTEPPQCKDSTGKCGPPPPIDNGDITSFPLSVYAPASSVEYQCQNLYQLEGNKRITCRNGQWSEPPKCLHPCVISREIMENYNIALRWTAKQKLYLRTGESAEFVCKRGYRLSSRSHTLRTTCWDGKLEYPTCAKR

[8] = molecular target: T8, non-reduced CFHR2; test: ELISA, non-reduced antigen
T8 construct: also called CFHR2 (NON-REDUCED)
T8 chain: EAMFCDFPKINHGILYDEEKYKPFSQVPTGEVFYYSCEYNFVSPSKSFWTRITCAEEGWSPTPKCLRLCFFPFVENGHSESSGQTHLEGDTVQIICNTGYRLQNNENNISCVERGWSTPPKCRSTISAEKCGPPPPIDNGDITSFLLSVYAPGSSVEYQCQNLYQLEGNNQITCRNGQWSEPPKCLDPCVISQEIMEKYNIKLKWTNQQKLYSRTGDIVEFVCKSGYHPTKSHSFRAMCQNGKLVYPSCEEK

[9] = molecular target: T9, non-reduced CFHR3; test: ELISA, non-reduced antigen
T9 construct: also called CFHR3 (NON-REDUCED)
T9 chain: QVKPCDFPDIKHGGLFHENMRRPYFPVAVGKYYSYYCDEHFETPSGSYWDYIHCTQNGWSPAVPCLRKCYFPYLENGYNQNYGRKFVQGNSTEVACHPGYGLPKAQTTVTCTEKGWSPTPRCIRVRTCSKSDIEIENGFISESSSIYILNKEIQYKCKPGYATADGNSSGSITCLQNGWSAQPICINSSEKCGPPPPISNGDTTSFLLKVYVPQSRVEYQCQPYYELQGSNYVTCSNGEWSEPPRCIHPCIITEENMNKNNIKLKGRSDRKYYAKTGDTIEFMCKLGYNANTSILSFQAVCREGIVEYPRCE

[10] = molecular target: T10, non-reduced CFHR4; test: ELISA, non-reduced antigen
T10 construct: not reduced; also called CFHR4 (NON-REDUCED)

[11] = molecular target: T11, non-reduced CFHR5; test: ELISA, non-reduced antigen
T11 construct: also called CFHR5 (NON-REDUCED)
T11 chain: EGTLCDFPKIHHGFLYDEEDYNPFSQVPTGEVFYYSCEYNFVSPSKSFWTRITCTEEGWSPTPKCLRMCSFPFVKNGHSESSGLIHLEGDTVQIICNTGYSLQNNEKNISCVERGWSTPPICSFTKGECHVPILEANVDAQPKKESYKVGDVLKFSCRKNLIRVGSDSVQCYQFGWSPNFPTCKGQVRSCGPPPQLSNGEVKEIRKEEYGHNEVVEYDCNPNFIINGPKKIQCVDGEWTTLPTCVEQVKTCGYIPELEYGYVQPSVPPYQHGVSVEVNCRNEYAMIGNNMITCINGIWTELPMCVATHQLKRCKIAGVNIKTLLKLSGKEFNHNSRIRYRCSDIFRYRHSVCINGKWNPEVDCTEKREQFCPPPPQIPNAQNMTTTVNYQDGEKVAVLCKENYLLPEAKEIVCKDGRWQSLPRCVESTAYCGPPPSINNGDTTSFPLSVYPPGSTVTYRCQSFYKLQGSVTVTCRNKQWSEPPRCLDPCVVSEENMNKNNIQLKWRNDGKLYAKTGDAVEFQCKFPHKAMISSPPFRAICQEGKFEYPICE

[12] = molecular target: T5, reduced CFH; test: ELISA on reduced CFH after heating the mAb (70 C, 1 h, as Figure 16)
[13] = molecular target: T4, reduced CFHR5; test: phage ELISA on reduced CFHR5 [B]

Row | Binder | fold change vs isotype at 1 ug/ml [1] [fold] | fold change vs isotype at 1 ug/ml [2] [fold] | binding result [3] | fold change vs isotype at 1 ug/ml [3] [fold] | binding result [4] | fold change vs isotype at 1 ug/ml [4] [fold] | fold change vs isotype at 1 ug/ml [5] [fold] | fold change vs isotype at 1 ug/ml [6] [fold] | fold change vs isotype at 1 ug/ml [7] [fold] | fold change vs isotype at 1 ug/ml [8] [fold] | binding result [9] | fold change vs isotype at 1 ug/ml [9] [fold] | fold change vs isotype at 1 ug/ml [10] [fold] | binding result [11] | fold change vs isotype at 1 ug/ml [11] [fold] | Harsh Heat challenge ELISA value [12] | binding result [13]
1 | ATL_0004715 (antibody, human IgG1, kappa, V domains shown, also called ATL4715) VH: EVQLVESGGGVVQPGRSLRLSCAASGFTFSRYGMHWVRQAPGKGLEWVAVMSYDGSTKYYADSVKGRFAISRDNPKNTLFLQMNSLRPDDTAVYYCAKGGAAAAVMDVWGKGTTVTVSS VL: DIVMTQSPDSLTVSLGERATISCKSSQRLLYSSNNKNYLAWYQQKPGQPPKLLMYWASTRESGVPDRFSGSGSGTDFSLTISSLQAEDVAVYYCQQYYNPPWTFGQGTKVEVKR | 22.9 | 9.9 | no binding (tested: 1 ug/ml) | 0.9 | no binding (tested: 1 ug/ml) | 1 | 17.2 | 10 | 10.1 | 3.9 | no binding (tested: 1 ug/ml) | 1 | 0.9 | no binding (tested: 1 ug/ml) | 0.9 | 0.09 | –
2 | 4894 phage (scFv, also called phage displaying the ATL4894 scFv) scFv displayed on phage: QVQLVESGGGVVQPGRSLRLSCAASGFTFSIYGMHWVRQAPGKGLEWVAVMSFDGKTKYYADSVKGRFTISRDNSKNTLYLQMNSLRAEDTAVYYCAKGGATAAVFDSWGQGTLVTVSGGGGSGGGGSGGGGSDIVMTQSPDSLAVSLGERATINCKSSQSLLYRSNNKNYLAWYQQKPGQPPKLLIYWASTRESGVPDRFSGSGSGTDFTLTISSLQAEDVAVYYCQQYYNPPWTFGQGTKVEIK | – | – | – | – | – | – | – | – | – | – | – | – | – | – | – | – | no binding
